This assay concerns the target Flag:Jub (full length Ajuba LIM protein Jub, 1-729aa) (Drosophila, UniProt Q9VY77 1-728). The assay can be described thus: co-IP.

Chain of Flag:Jub (full length Ajuba LIM protein Jub, 1-729aa) (Q9VY77 whole entry): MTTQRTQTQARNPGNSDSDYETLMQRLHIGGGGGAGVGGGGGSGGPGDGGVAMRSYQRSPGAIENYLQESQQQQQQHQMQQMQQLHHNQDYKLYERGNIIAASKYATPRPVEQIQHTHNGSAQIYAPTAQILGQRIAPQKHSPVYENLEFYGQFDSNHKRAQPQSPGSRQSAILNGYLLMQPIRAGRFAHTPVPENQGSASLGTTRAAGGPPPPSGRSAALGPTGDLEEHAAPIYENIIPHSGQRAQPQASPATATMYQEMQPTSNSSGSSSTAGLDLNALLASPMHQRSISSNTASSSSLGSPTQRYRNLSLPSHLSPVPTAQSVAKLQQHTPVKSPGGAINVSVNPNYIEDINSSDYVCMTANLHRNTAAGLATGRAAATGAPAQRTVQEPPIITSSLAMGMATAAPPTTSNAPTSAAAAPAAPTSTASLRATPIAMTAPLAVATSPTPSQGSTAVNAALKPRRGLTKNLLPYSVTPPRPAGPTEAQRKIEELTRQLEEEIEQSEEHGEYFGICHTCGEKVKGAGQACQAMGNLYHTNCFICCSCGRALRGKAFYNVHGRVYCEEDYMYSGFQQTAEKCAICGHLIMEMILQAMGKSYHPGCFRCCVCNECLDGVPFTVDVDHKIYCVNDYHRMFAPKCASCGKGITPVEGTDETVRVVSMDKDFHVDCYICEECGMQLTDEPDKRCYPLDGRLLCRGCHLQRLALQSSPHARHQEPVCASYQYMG

B1: Sav:V5 (V5-tagged Salvador) (natural protein, Drosophila, UniProt Q9VCR6 1-608, looked up)
chain: MNYLTILLCNRKPTMLSRRNKEKSQHKEGVVGKYMKKDTPPDISVINVWSDQRAKKKSLQRCASTSPSCEFHPRSSSTSRNTYSCTDSQPDYYHARRAQSQMPLQQHSHSHPHSLPHPSHPHVRSHPPLPPHQFRASSNQLSQNSSNYVNFEQIERMRRQQSSPLLQTTSSPAPGAGGFQRSYSTTQRQHHPHLGGDSYDADQGLLSASYANMLQLPQRPHSPAHYAVPPQQQQHPQIHQQHASTPFGSTLRFDRAAMSIRERQPRYQPTSSPMQQQQQQQQQQQQQLQHTQLAAHLGGSYSSDSYPIYENPSRVISMRATQSQRSESPIYSNTTASSATLAVVPQHHHQGHLAVPSGSGGGSLSGSGRGGSSGSVRGASTSVQSLYVPPRTPPSAVAGAGGSANGSLQKVPSQQSLTEPEELPLPPGWATQYTLHGRKYYIDHNAHTTHWNHPLEREGLPVGWRRVVSKMHGTYYENQYTGQSQRQHPCLTSYYVYTTSAEPPKAIRPEASLYAPPTHTHNALVPANPYLLEEIPKWLAVYSEADSSKDHLLQFNMFSLPELEGFDSMLVRLFKQELGTIVGFYERYRRALILEKNRRAGQNQNQNQ
As for B1, the “fold change of binding with Ras-MAPK activation against without” value is 3 fold.

B2: Myc:Wts (Myc-tagged Warts) (enzyme, Drosophila, UniProt Q9VA38 1-1105, looked up)
chain: MHPAGEKRGGRPNDKYTAEALESIKQDLTRFEVQNNHRNNQNYTPLRYTATNGRNDALTPDYHHAKQPMEPPPSASPAPDVVIPPPPAIVGQPGAGSISVSGVGVGVVGVANGRVPKMMTALMPNKLIRKPSIERDTASSHYLRCSPALDSGAGSSRSDSPHSHHTHQPSSRTVGNPGGNGGFSPSPSGFSEVAPPAPPPRNPTACSAATPPPPVPPTSQAYVKRRSPALNNRPPAIAPPTQRGNSPVITQNGLKNPQQQLTQQLKSLNLYPGGGSGAVVEPPPPYLIQGGAGGAAPPPPPPSYTASMQSRQSPTQSQQSDYRKSPSSGIYSATSAGSPSPITVSLPPAPLAKPQPRVYQARSQQPIIMQSVKSTQVQKPVLQTAVAPQSPSSASASNSPVHVLAAPPSYPQKSAAVVQQQQQAAAAAHQQQHQHQQSKPPTPTTPPLVGLNSKPNCLEPPSYAKSMQAKAATVVQQQQQQQQQQQQVQQQQVQQQQQQQQQQLQALRVLQAQAQRERDQRERDQRERERDQQKLANGNPGRQMLPPPPYQSNNNNNSEIKPPSCNNNNIQISNSNLATTPPIPPAKYNNNSSNTGANSSGGSNGSTGTTASSSTSCKKIKHASPIPERKKISKEKEEERKEFRIRQYSPQAFKFFMEQHIENVIKSYRQRTYRKNQLEKEMHKVGLPDQTQIEMRKMLNQKESNYIRLKRAKMDKSMFVKLKPIGVGAFGEVTLVSKIDTSNHLYAMKTLRKADVLKRNQVAHVKAERDILAEADNNWVVKLYYSFQDKDNLYFVMDYIPGGDLMSLLIKLGIFEEELARFYIAEVTCAVDSVHKMGFIHRDIKPDNILIDRDGHIKLTDFGLCTGFRWTHNSKYYQENGNHSRQDSMEPWEEYSENGPKPTVLERRRMRDHQRVLAHSLVGTPNYIAPEVLERSGYTQLCDYWSVGVILYEMLVGQPPFLANSPLETQQKVINWEKTLHIPPQAELSREATDLIRRLCASADKRLGKSVDEVKSHDFFKGIDFADMRKQKAPYIPEIKHPTDTSNFDPVDPEKLRSNDSTMSSGDDVDQNDRTFHGFFEFTFRRFFDDKQPPDMTDDQAPVYV
B2: the “fold change of binding with Ras-MAPK activation against without” value came to 2 fold.

The values are drawn from publication PMC3624988 (Developmental cell, 2013).
